Where two headings read alike, the source gives them in different places.
T1: CRH (CT-Biotin) (human and mouse (same sequence), biotin on an added C-terminal K (CRH-K-Biotin))
T1 construct: also called Peptide 4 (CRH-Biotin)
T1 peptide: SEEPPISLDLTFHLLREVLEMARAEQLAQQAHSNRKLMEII

T2: CRH (NT-Biotin) (human and mouse (same sequence), not fully specified; biotin at the N-terminus)
T2 peptide: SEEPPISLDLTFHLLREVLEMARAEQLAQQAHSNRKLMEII

T3: corticotropin-releasing hormone (CRH) peptide (human and mouse (same sequence), not fully specified)
T3 peptide: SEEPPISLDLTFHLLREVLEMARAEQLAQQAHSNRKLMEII


How the values were obtained:
CRH (CT-Biotin) [1] = target: T1, CRH (CT-Biotin); experiment: ELISA, biotinylated CRH on streptavidin plate
Procedure: (§1) Streptavidin (Thermo, Cat: 21125) was diluted in PBS to a concentration of 2 μg/ml. 100 μl of diluted streptavidin was added per well to ELISA microplates, and the plates were incubated overnight at 4° C. […] 100 μL of 3,3′,5,5′-tetramethylbenzidine (TMB) substrate (Biopanda, Cat: TMB-S-003) was added, and the plates were incubated at room temperature for 15 minutes. 100 μL of ELISA stopping solution (Solarbio, Cat #: C1058) was added to terminate the reaction, and the optical density at 450 nm (OD450 nm) was determined by an ELISA plate reader (Molecular Devices, Spectra max 384 plus).

CRH (NT-Biotin) [2] = target: T2, CRH (NT-Biotin); experiment: ELISA, biotinylated CRH on streptavidin plate
Procedure: as §1

[3] = target: T3, corticotropin-releasing hormone (CRH) …; experiment: cell-based or functional assay
[4] = target: T3, corticotropin-releasing hormone (CRH) …; experiment: cell-based or functional assay
CRH (CT-Biotin) [5] = target: T1, CRH (CT-Biotin); experiment: ELISA, biotinylated CRH on streptavidin plate
Procedure: as §1

CRH (NT-Biotin) [6] = target: T2, CRH (NT-Biotin); experiment: ELISA, biotinylated CRH on streptavidin plate
Procedure: as §1

[7] = target: T3, corticotropin-releasing hormone (CRH) …; experiment: cell-based or functional assay

Row | Binder | EC50 (CRH (CT-Biotin) [1]) | EC50 (CRH (NT-Biotin) [2]) | hCRHR1 Luciferase Reporter Assay IC50 [3] | mCrhr1 Luciferase Reporter Assay IC50 [3] | hCRHR1 Luciferase Reporter Assay IC50 [4] | mCrhr1 Luciferase Reporter Assay IC50 [4] | EC50 (CRH (CT-Biotin) [5]) | EC50 (CRH (NT-Biotin) [6]) | hCRHR1 Luciferase Reporter Assay IC50 [7] | mCrhr1 Luciferase Reporter Assay IC50 [7]
1 | PR005656 (antibody, human IgG1, kappa, V domains shown, PTM-removal variant of PR004290) VH: EVQLVESGGVLVQPGGSLRLSCAASGFTFSSYWMTWVRQAPGKGLEWVANIKQEGSEKYYVDSVKGRFTISRDNAKNSLFLQMNSLRAEDTAVYYCARTLIFDYWGQGTLVTVSS VL: DIVMTQSPLSLPVTPGEPASISCRSSQSLLHSTGYNSLEWYLQKPGQSPQLLIYLGSNRASGVPDRFSGSGSGTDFTLKISRVEAEDVGIYYCMQTLQTPITFGQGTRLEIKR | 0.033 nM | 0.026 nM | 1.74 nM | 4.26 nM | – | – | – | – | – | –
2 | PR301777 (antibody, human IgG1, kappa, V domains shown, Series 5; mouse variable domains, human IgG1 wildtype Fc) VH: EMKLEESGGGLVQPGGSMKLSCVASGFTFSNYWMNWVRQSPEKGLEWVAEIRLKSNNYATHYAESVKGRFTISRDDSKSGVYLQMNNLGAEDTGIYYCTVGTLVYWGQGTLVTVSA VL: DIVLTQSPASLAVSLGQRATISCRASQSVSTSTYNYMHWFQQKPGQPPKLLIKFASNLESGVPARFSGSGSGTDFTLNIHPVEEEDTATFYCQHSWEIPYTFGGGTKLEIKR | – | – | – | – | 0.674 nM | 2.42 nM | 0.043 nM | 0.043 nM | – | –
3 | PR302036 (antibody, human IgG1, kappa, V domains shown, humanized variant of PR301777) VH: EMQLVESGGGLVQPGGSLRLSCAASGFTFSNYWMNWVRQAPGKGLEWVAEIRLKSNNYATHYAESVKGRFTISRDDSKSSVYLQMNSLKTEDTAVYYCTVGTLVYWGQGTLVTVSS VL: DIVLTQSPDSLAVSLGERATINCRASQSVSTSTYNYMHWFQQKPGQPPKLLIKFASNLESGVPDRFSGSGSGTDFTLTISSLQAEDTAVYYCQHSWEIPYTFGQGTKLEIKR | – | – | – | – | 1.4 nM | 3.03 nM | 0.033 nM | 0.04 nM | – | –
4 | PR302038 (antibody, human IgG1, kappa, V domains shown, humanized variant of PR301777) VH: EMQLVESGGGLVQPGGSLRLSCAASGFTFSNYWMNWVRQAPGKGLEWVAEIRLKSNNYATHYAESVKGRFTISRDDSKSSVYLQMNSLKTEDTAVYYCTVGTLVYWGQGTLVTVSS VL: EIVLTQSPATLSLSPGERATLSCRASQSVSTSTYNYMHWFQQKPGQAPRLLIKFASNLESGIPARFSGSGSGTDFTLTISSLEPEDTAVYYCQHSWEIPYTFGQGTKLEIKR | – | – | – | – | 3.34 nM | 10.1 nM | 0.04 nM | 0.065 nM | – | –
5 | PR302041 (antibody, human IgG1, kappa, V domains shown, humanized variant of PR301777) VH: EMQLVESGGGLVQPGGSLRLSCAASGFTFSNYWMNWVRQAPGKGLEWVAEIRLKSNNYATHYAESVKGRFTISRDDSKSSVYLQMNSLKTEDTAVYYCTVGTLVYWGQGTLVTVSS VL: DIQLTQSPSSLSASVGDRVTITCRASQSVSTSTYNYMHWFQQKPGKAPKLLIKFASNLESGVPSRFSGSGSGTDFTLTISSLQPEDTATYYCQHSWEIPYTFGQGTKLEIKR | – | – | – | – | 2.54 nM | 7.17 nM | 0.035 nM | 0.063 nM | – | –
6 | PR302034 (antibody, human IgG1, kappa, V domains shown, humanized variant of PR301777) VH: EVQLVESGGGLVQPGGSLRLSCAASGFTFSNYWMNWVRQAPGKGLEWVGEIRLKSNNYATHYAESVKGRFTISRDDSKNSLYLQMNSLKTEDTAVYYCTVGTLVYWGQGTLVTVSS VL: DIQLTQSPSSLSASVGDRVTITCRASQSVSTSTYNYMHWFQQKPGKAPKLLIKFASNLESGVPSRFSGSGSGTDFTLTISSLQPEDTATYYCQHSWEIPYTFGQGTKLEIKR | – | – | – | – | 6.87 nM | 204 nM | 0.022 nM | 0.026 nM | – | –
7 | PR302045 (antibody, human IgG1, kappa, V domains shown, humanized variant of PR301777) VH: EVQLVESGGGLVQPGGSLKLSCAASGFTFSNYWMNWVRQASGKGLEWVGEIRLKSNNYATHYAESVKGRFTISRDDSKNTAYLQMNSLKTEDTAVYYCTRGTLVYWGQGTLVTVSS VL: EIVLTQSPATLSLSPGERATLSCRASQSVSTSTYNYMHWFQQKPGQAPRLLIKFASNLESGIPARFSGSGSGTDFTLTISSLEPEDTAVYYCQHSWEIPYTFGQGTKLEIKR | – | – | – | – | 15.3 nM | – | 0.046 nM | 0.128 nM | – | –
8 | PR302048 (antibody, human IgG1, kappa, V domains shown, humanized variant of PR301777) VH: EVQLVESGGGLVQPGGSLKLSCAASGFTFSNYWMNWVRQASGKGLEWVGEIRLKSNNYATHYAESVKGRFTISRDDSKNTAYLQMNSLKTEDTAVYYCTRGTLVYWGQGTLVTVSS VL: DIQLTQSPSSLSASVGDRVTITCRASQSVSTSTYNYMHWFQQKPGKAPKLLIKFASNLESGVPSRFSGSGSGTDFTLTISSLQPEDTATYYCQHSWEIPYTFGQGTKLEIKR | – | – | – | – | 6.66 nM | 33.3 nM | 0.024 nM | 0.043 nM | – | –
9 | PR302069 (antibody, human IgG1, kappa, V domains shown, humanized variant of PR301777) VH: EMQLVESGGGLVKPGGSLRLSCAASGFTFSNYWMNWVRQAPGKGLEWVAEIRLKSNNYATHYAESVKGRFTISRDDSKSTVYLQMNSLKTEDTAVYYCTVGTLVYWGQGTLVTVSS VL: DIQLTQSPSSLSASVGDRVTITCRASQSVSTSTYNYMHWFQQKPGKAPKLLIKFASNLESGVPSRFSGSGSGTDFTLTISSLQPEDTATYYCQHSWEIPYTFGQGTKLEIKR | – | – | – | – | 1.54 nM | 4.4 nM | 0.016 nM | 0.061 nM | – | –

The remaining binders from weak to strong by EC50 (CRH (CT-Biotin) [5]), led by results:

Row | EC50 (CRH (CT-Biotin) [1]) | EC50 (CRH (NT-Biotin) [2]) | hCRHR1 Luciferase Reporter Assay IC50 [3] | mCrhr1 Luciferase Reporter Assay IC50 [3] | hCRHR1 Luciferase Reporter Assay IC50 [4] | mCrhr1 Luciferase Reporter Assay IC50 [4] | EC50 (CRH (CT-Biotin) [5]) | EC50 (CRH (NT-Biotin) [6]) | hCRHR1 Luciferase Reporter Assay IC50 [7] | mCrhr1 Luciferase Reporter Assay IC50 [7] | Binder
10 | – | – | – | – | 3.87 nM | 9.97 nM | 0.03 nM | 0.046 nM | – | – | PR302043 (antibody, human IgG1, kappa, V domains shown, humanized variant of PR301777) VH: EVQLVESGGGLVQPGGSLKLSCAASGFTFSNYWMNWVRQASGKGLEWVGEIRLKSNNYATHYAESVKGRFTISRDDSKNTAYLQMNSLKTEDTAVYYCTRGTLVYWGQGTLVTVSS VL: DIVLTQSPDSLAVSLGERATINCRASQSVSTSTYNYMHWFQQKPGQPPKLLIKFASNLESGVPDRFSGSGSGTDFTLTISSLQAEDTAVYYCQHSWEIPYTFGQGTKLEIKR
11 | – | – | – | – | 14 nM | – | 0.028 nM | 0.037 nM | – | – | PR302031 (antibody, human IgG1, kappa, V domains shown, humanized variant of PR301777) VH: EVQLVESGGGLVQPGGSLRLSCAASGFTFSNYWMNWVRQAPGKGLEWVGEIRLKSNNYATHYAESVKGRFTISRDDSKNSLYLQMNSLKTEDTAVYYCTVGTLVYWGQGTLVTVSS VL: EIVLTQSPATLSLSPGERATLSCRASQSVSTSTYNYMHWFQQKPGQAPRLLIKFASNLESGIPARFSGSGSGTDFTLTISSLEPEDTAVYYCQHSWEIPYTFGQGTKLEIKR
12 | – | – | – | – | 2.65 nM | 13.9 nM | 0.027 nM | 0.03 nM | – | – | PR302029 (antibody, human IgG1, kappa, V domains shown, humanized variant of PR301777) VH: EVQLVESGGGLVQPGGSLRLSCAASGFTFSNYWMNWVRQAPGKGLEWVGEIRLKSNNYATHYAESVKGRFTISRDDSKNSLYLQMNSLKTEDTAVYYCTVGTLVYWGQGTLVTVSS VL: DIVLTQSPDSLAVSLGERATINCRASQSVSTSTYNYMHWFQQKPGQPPKLLIKFASNLESGVPDRFSGSGSGTDFTLTISSLQAEDTAVYYCQHSWEIPYTFGQGTKLEIKR
13 | – | – | – | – | 0.531 nM | 2.39 nM | 0.022 nM | 0.062 nM | 0.989 nM | 4.92 nM | PR302064 (antibody, human IgG1, kappa, V domains shown, humanized variant of PR301777) VH: EMQLVESGGGLVKPGGSLRLSCAASGFTFSNYWMNWVRQAPGKGLEWVAEIRLKSNNYATHYAESVKGRFTISRDDSKSTVYLQMNSLKTEDTAVYYCTVGTLVYWGQGTLVTVSS VL: DIVLTQSPDSLAVSLGERATINCRASQSVSTSTYNYMHWFQQKPGQPPKLLIKFASNLESGVPDRFSGSGSGTDFTLTISSLQAEDTAVYYCQHSWEIPYTFGQGTKLEIKR
14 | – | – | – | – | 2.49 nM | 11.5 nM | 0.019 nM | 0.077 nM | – | – | PR302066 (antibody, human IgG1, kappa, V domains shown, humanized variant of PR301777) VH: EMQLVESGGGLVKPGGSLRLSCAASGFTFSNYWMNWVRQAPGKGLEWVAEIRLKSNNYATHYAESVKGRFTISRDDSKSTVYLQMNSLKTEDTAVYYCTVGTLVYWGQGTLVTVSS VL: EIVLTQSPATLSLSPGERATLSCRASQSVSTSTYNYMHWFQQKPGQAPRLLIKFASNLESGIPARFSGSGSGTDFTLTISSLEPEDTAVYYCQHSWEIPYTFGQGTKLEIKR
15 | – | – | – | – | 2.05 nM | 7.32 nM | 0.018 nM | 0.048 nM | – | – | PR302052 (antibody, human IgG1, kappa, V domains shown, humanized variant of PR301777) VH: EMQLVESGGGLVQPGGSLKLSCAASGFTFSNYWMNWVRQASGKGLEWVAEIRLKSNNYATHYAESVKGRFTISRDDSKSTVYLQMNSLKTEDTAVYYCTVGTLVYWGQGTLVTVSS VL: EIVLTQSPATLSLSPGERATLSCRASQSVSTSTYNYMHWFQQKPGQAPRLLIKFASNLESGIPARFSGSGSGTDFTLTISSLEPEDTAVYYCQHSWEIPYTFGQGTKLEIKR
16 | – | – | – | – | 0.572 nM | 2.7 nM | 0.01 nM | 0.021 nM | – | – | PR302050 (antibody, human IgG1, kappa, V domains shown, humanized variant of PR301777) VH: EMQLVESGGGLVQPGGSLKLSCAASGFTFSNYWMNWVRQASGKGLEWVAEIRLKSNNYATHYAESVKGRFTISRDDSKSTVYLQMNSLKTEDTAVYYCTVGTLVYWGQGTLVTVSS VL: DIVLTQSPDSLAVSLGERATINCRASQSVSTSTYNYMHWFQQKPGQPPKLLIKFASNLESGVPDRFSGSGSGTDFTLTISSLQAEDTAVYYCQHSWEIPYTFGQGTKLEIKR

From patent US20260042834A1 (HBM ALPHA THERAPEUTICS, published 2026)
